# Test results from publication PMC6764022 (ACS Nano, 2019).
# Bridges are numbered along the chain shown (N, C = ends). Roman numbers before positions name the chains, in order. Where no end group is shown, it is not given here. [ ]: non-standard residue; d: D form. Lys(N3) = [N-]=[N+]=NCCCC[C@H](N)C(=O)O
# T1: B3: DNA origami B decorated with three β-CC-Di-KE (azidonorleucine (Z) at the N-terminus, joined to oligonucleotide tag β, which is hybridised to a handle of DNA origami B)
# T1 chain: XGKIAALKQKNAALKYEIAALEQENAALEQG
# T2: B2: DNA origami B decorated with two β-CC-Di-KE (azidonorleucine (Z) at the N-terminus, joined to oligonucleotide tag β, which is hybridised to a handle of DNA origami B)
# T2 chain: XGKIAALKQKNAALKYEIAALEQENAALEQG
# T3: B1: DNA origami B decorated with one β-CC-Di-KE (azidonorleucine (Z) at the N-terminus, joined to oligonucleotide tag β, which is hybridised to a handle of DNA origami B)
# T3 chain: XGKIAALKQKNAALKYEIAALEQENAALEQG
# T4: CC-Di-KE (N-terminal acetylation (methods, said of the peptides in general))
# T4 chain: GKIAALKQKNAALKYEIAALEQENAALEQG
# B1: CC-Di-EK-C disulfide-linked to C-CC-Di-KE (opposite ends) (complex)
# peptide 1: Ac-GEIAALEQENAALEQKIAALKWKNAALKQGC-NH2
# peptide 2: Ac-CGGKIAALKQKNAALKYEIAALEQENAALEQG-NH2
# modifications: disulfide I:31-II:1
# B2: A2: DNA origami A decorated with two CC-Di-EK-α (other)
# chain: GEIAALEQENAALEQKIAALKWKNAALKQG[Lys(N3)]-NH2
# modifications: not fully specified; also: tag α hybridised to handle of DNA origami A, two copies per origami
# Legend:
# ssDNA tags = test: CD test of interaction of peptides with ssDNA tags; assay type: binding; conditions: CD spectra (Figure S6a,b)
# Source text: Peptide modelling. Parametric models for all six combinations of CC-Di-EK and CC-Di-KE as hetero and homodimeric parallel and antiparallel coiled coils were generated using ISAMBARD (https://github.com/woolfson -group/isambard).1 These were optimized for BUDE Interaction Energy in ISAMBARD using a genetic algorithm which generated 30,000 models per combination over 3 0 generations with 1,000 models in each. To ensure that we generated useful models, we restricted geometric parameters to values consistent with coiled -coil dimers. For both the parallel and antiparallel […]
# z shift = 0 ± 5 Å. Optimizations were repeated three times for each combination.
# Peptide purification. […]
# (§1) Exceptions were CC-Di-EK-Z and Z-CC-Di-KE, the masses of which were confirmed by infusing sample from an Advion Nanomate Triverser (Nanospray source) at 1.4 kV into a Waters Synapt G2S IMS Q -TOF mass spectrometer. Peptide purity was determined to be >95% using a JACSO HPLC system set up with an analytical reverse phase Phenomenex Kinete x C18 column (5  µM particle size; 100 Å pore size; 100 x 4.6 mm) running linear gradients of buffer B vs. buffer A.
# (§2) Peptide Concentration determinations. Peptide concentrations were determined in H 2O by UV-vis absorption at 280 nm on a Nanodrop 2000 (Thermo Scientific) using the following extinction coefficients: […]
# [1] = Sedimentation equilibrium analytical ultracentrifugation (AUC); assay type: physicochemical; conditions: PBS, 20 °C; for MWAUC (Table S3): 55 μM each, 44–60 krpm, single ideal species, 280 nm (235 nm for CC-Di-KE), performed once, 99% confidence limits in separate column; for Oligomeric state (Table S3) / oligomeric state by AUC, in words: 55 μM; for Oligomeric state (Table S3): single run
# [2] = CD spectra and thermal unfolding; assay type: physicochemical; conditions: 5 °C, 50 μM, neutral pH (PBS pH 7.4)
# Experimental: Figure 1 Biophysical characterization of the coiled-coil heterodimer formed between charge-neutral peptides CC-Di-EK and CC-Di-KE. (a) CD spectra recorded at 5 °C and (b) thermal unfolding (filled symbols, solid line) and refolding (open symbols, dashed line) profiles, monitored through the CD signal at 222 nm, of the individual peptides CC-Di-EK (red, circles) and CC-Di-KE (blue, squares) and of an equimolar mixture of CC-Di-EK:KE (purple, triangles). The average of the spectra of the individual peptides is shown in black (no symbols). […] Representative data from a minimum of three replicates are shown. Conditions: each peptide 50 μM in PBS (pH 7.4), 1 mm path length quartz cuvette. […]
# as §1, §2
# [3] = molecular target: the molecule itself; test: AUC; sedimentation equilibrium of the disulfide-linked heterodimers, 55 µM in PBS, 20 °C, 24-39 krpm in 3 krpm steps (colour key of Figure S3 o, p), fits to a single ideal species
# [4] = molecular target: the molecule itself; test: AUC; sedimentation equilibrium, 55 µM of each peptide in PBS, 20 °C, with TCEP reducing agent (10-fold excess; for the pair 5-fold relative to total peptide), fits to a single ideal species
# [5] = molecular target: T1, B3: DNA origami B decorated with three …; test: counting of free and bound DNA origami nanostructures in electron micrographs (TEM); peptides displayed on DNA origamis A and B through oligonucleotide tags; gel-purified An and Bn mixed, total monomer concentrations 0.25-2.4 nM; background of random coincidences subtracted; Kd from the slope of a linear fit through the origin; additional systematic error of approximately 20%; conditions: both partners purified
# [6] = molecular target: the molecule itself; test: as above
# [7] = molecular target: the molecule itself; test: AUC; sedimentation equilibrium, 55 µM of each peptide in PBS pH 7.4, 20 °C, 44-60 krpm, fits to a single ideal species
# [8] = molecular target: T2, B2: DNA origami B decorated with two …; test: counting of free and bound DNA origami nanostructures in electron micrographs (TEM); peptides displayed on DNA origamis A and B through oligonucleotide tags; gel-purified An and Bn mixed, total monomer concentrations 0.25-2.4 nM; background of random coincidences subtracted; Kd from the slope of a linear fit through the origin; additional systematic error of approximately 20%; conditions: both partners purified
# [9] = molecular target: T3, B1: DNA origami B decorated with one …; test: as above; conditions: both partners purified
# CC-Di-KE = molecular target: T4, CC-Di-KE; test: circular dichroism thermal unfolding, concentration dependence of TM; Kd for heterodimerization estimated from the concentration dependence of the TM of free peptides in solution; conditions: both partners purified
molecule,measurement,setting,value
"Ac-G EIAALEQ ENAALEQ KIAALKW KNAALKQ G-NH2 (Ac-GEIAALEQENAALEQKIAALKWKNAALKQG-NH2) [CC-Di-EK, charge-neutral coiled-coil peptide, four heptads, asparagines at two a sites]",interaction with ssDNA tags,ssDNA tags,no interaction
same,MWAUC (Table S3),[1],3274 Da
same,Oligomeric state (Table S3),[1],1.00 x monomer
same,"oligomeric state by AUC, in words",[1],monomers
same,folding state by CD,[2],either largely or fully unfolded
"Ac-G KIAALKQ KNAALKY EIAALEQ ENAALEQ G-NH2 (Ac-GKIAALKQKNAALKYEIAALEQENAALEQG-NH2) [CC-Di-KE, charge-neutral coiled-coil peptide, partner of CC-Di-EK]",interaction with ssDNA tags,ssDNA tags,no interaction
same,MWAUC (Table S3),[1],3096 Da
same,Oligomeric state (Table S3),[1],0.96 x monomer
same,"oligomeric state by AUC, in words",[1],monomers
same,folding state by CD,[2],either largely or fully unfolded
B1,stoichiometry N,[3],2.6 x obligate dimer
Ac-CGGEIAALEQENAALEQKIAALKWKNAALKQG-NH2 [C-CC-Di-EK],stoichiometry N,[4],1.96 x monomer
"GEIAALEQENAALEQKIAALKWKNAALKQG[Lys(N3)]-NH2 (other, also: tag α hybridised to handle of DNA origami A, three copies per origami) [A3: DNA origami A decorated with three CC-Di-EK-α]",Kd,[5],0.7 ± 0.1 nM
same,Kd,[6],24 ± 4 nM
Ac-GEIAALEQEIAALEQKNAALKWKIAALKQG-NH2 [CC-Di-EN4],stoichiometry N,[7],1.87 x monomer
B2,Kd,[8],25 ± 3 nM
"GEIAALEQENAALEQKIAALKWKNAALKQG[Lys(N3)]-NH2 (other, also: tag α hybridised to handle of DNA origami A, one copy per origami) [A1: DNA origami A decorated with one CC-Di-EK-α]",Kd,[9],130 ± 20 nM
Ac-GEIAALEQENAALEQKIAALKWKNAALKQG-NH2 [CC-Di-EK],Kd,CC-Di-KE,102 ± 26 nM
